Columns and labels:
[1] = target: T1, von Willebrand factor (VWF) (Homo sapiens, UniProt P04275 P04275:764-2813); assay: filter; nitrocellulose filter binding, 37 C, 2 mM CaCl2; conditions: tags: Haematologic Technologies Inc. (factor VIII free); label: 5'-32P
Method: (§1) Affinity constants (Kd values) were determined using double-filter nitrocellulose filter binding assays (Rusconi et al, Thromb. Haemost. 84:841-848 (2000)). All binding studies were performed in either binding buffer E (20 mM HEPES, pH 7.4, 50 mM NaCl, 2 mM CaCl₂, and 0.1% BSA) or binding buffer F (20 mM HEPES, pH 7.4, 150 mM NaCl, 2 mM CaCl₂, and 0.1% BSA) at 37° C. Human purified VWF (factor VIII free) was purchased from Haematologic Technologies Inc. (Essex Junction, VT) and used in the double-filter nitrocellulose filter binding assay to determine the Kd of every other round and individual clones. VWF SPI and VWF SPIII domains were kindly provided by Dr. J. Evan Sadler (Washington University in St. Louis). Briefly, RNA were dephosphorylated using bacterial alkaline phosphatase (Gibco BRL, Gaithberg, Md.) and end-labeled at the 5′ end with T4 polynucleotide kinase (New England Biolabs, Beverly, Mass.) and [γ³²P] ATP (Amersham Pharmacia Biotech, Piscataway, N.J.) (Fitzwater and Polisky, Methods Enzymol. 267:275-301 (1996)). Direct binding was performed by incubating ³²P-RNA with VWF in physiological buffer+1 mg/ml BSA at 37° C. for 5 min. The fraction of the nucleic acid-protein complex which bound to the nitrocellulose membrane was quantified with a posphoimager (Molecular Dynamics, Sunnyvale, Calif.).

[2] = target: VWF SPI fragment (V8 protease; C-terminal 455 residues of SPIII) (UniProt P04275 P04275:1674-2128); assay: filter; 37 C, 2 mM CaCl2; conditions: label: 5'-32P
Method: as §1

[3] = target: T2, glycoprotein IIb/IIIa on activated platelets (Homo sapiens, UniProt P08514;P08514;P05106 P08514:32-887,P08514:891-1039,P05106:27-788); assay: filter; apparent Kd on activated platelets, 37 C; conditions: label: 5'-32P
Method: (§2) In order to correlate the real-time data with binding affinity, purified 11D platelets were isolated and the affinity of each round to activated platelets was measured using nitrocellulose-filter partitioning (Wang et al, Biochemistry 32:1899-1904 (1993)). Since purified gpIIb/IIIa were selected, 80,000 gpIIb/IIIa receptors per platelet were assumed (Tcheng, Am. Heart J. 139:S38-45 (2000)) and the theoretical concentration of the protein was calculated.
(§3) Representative clones from each family were subsequently tested for their ability to bind to purified platelets.

[4] = target: T1, von Willebrand factor (VWF); assay: filter; buffer F, 150 mM NaCl, 2 mM CaCl2, 37 C; Bmax 61%; conditions: tags: Haematologic Technologies Inc. (factor VIII free); label: 5'-32P
Method: Dissociation constants (Kd) of each truncate were determined using double-filter nitrocellulose filter binding assays (Pergolizzi et al, Blood 108:862-869 (2006)). All binding studies were performed in binding buffer F (20 mM HEPES, pH 7.4, 150 mM NaCl, 2 mM CaCl₂, and 0.1% BSA) at 37° C. Human purified VWF (with factor VIII and factor VIII free) was purchased from Haematologic Technologies Inc. (Essex Junction, VT) and used in the double-filter nitrocellulose filter binding assay to determine the Kd of individual clones. Briefly, RNA was dephosphorylated using bacterial alkaline phosphatase (Gibco BRL, Gaithberg, Md.) and end-labeled at the 5′ end with T4 polynucleotide kinase (New England Biolabs, Beverly, Mass.) and [γ³²P] ATP (Amersham Pharmacia Biotech, Piscataway, N.J.). Direct binding was performed by incubating ³²P—RNA with VWF in physiological buffer+1 mg/ml BSA at 37° C. for 5 min. The fraction of the nucleic acid-protein complex which bound to the nitrocellulose membrane was quantified with a phosphoimager (Molecular Dynamics, Sunnyvale, Calif.).

[5] = target: T2, glycoprotein IIb/IIIa on activated …; assay: filter; apparent Kd on activated platelets, poorest binder; conditions: label: 5'-32P
Method: as §2, §3

B1: VWF R9.14 (ssRNA)
RNA: GGGAGGACGAUGCGGUGGACGAACUGCCCUCAGCUACUUUCAUGUUGCUGACGCACAGACGACUCGCUGAGGAUCCGAGA
modifications: 2'-F pyrimidines
[1]
  Kd: 12 nM
[2]
  binding result: no binding

B2: C1 (ssRNA)
RNA: GGGAGGACGAUGCGGUAUAGACCACAGCCUGAGUAUUAACCACCAACCCAGGUACUCAGACGACUCGCUGAGGAUCC
modifications: 2'-F pyrimidines
[3]
  Kd: 6 nM

B3: 9.14 T10 (ssRNA)
RNA: GGGAGGUGGACGAACUGCCCUCAGCUACUUUCAUGUUGCUGACGCACAGACGACUCGCUG
modifications: 2'-F pyrimidines
[4]
  Kd: 44 nM

B4: C3 (ssRNA)
RNA: GGGAGGACGAUGCGGUGCCACAUGCCUCAGAUACAGCACGCACCUUCGACCUAAUCAGACGACUCGCUGAGGAUCC
modifications: 2'-F pyrimidines
[5]
  Kd: 62 nM
